Assay results: patent publication US20090074722A1, “Products and methods for treating PTP lar diseases” (MAX-PLANCK-GESELLSCHAFT ZUR, priority 1999, published 2009)

Target: T1, tyrosine phosphorylated β-catenin (Homo sapiens, UniProt P35222)
T1 construct: expressed in transfected cells; host or cells: human 293 embryonic kidney cells, transient; CMV-promoter vector; immunoprecipitated with anti-β-catenin antibody
T1 sequence (P35222 1-781): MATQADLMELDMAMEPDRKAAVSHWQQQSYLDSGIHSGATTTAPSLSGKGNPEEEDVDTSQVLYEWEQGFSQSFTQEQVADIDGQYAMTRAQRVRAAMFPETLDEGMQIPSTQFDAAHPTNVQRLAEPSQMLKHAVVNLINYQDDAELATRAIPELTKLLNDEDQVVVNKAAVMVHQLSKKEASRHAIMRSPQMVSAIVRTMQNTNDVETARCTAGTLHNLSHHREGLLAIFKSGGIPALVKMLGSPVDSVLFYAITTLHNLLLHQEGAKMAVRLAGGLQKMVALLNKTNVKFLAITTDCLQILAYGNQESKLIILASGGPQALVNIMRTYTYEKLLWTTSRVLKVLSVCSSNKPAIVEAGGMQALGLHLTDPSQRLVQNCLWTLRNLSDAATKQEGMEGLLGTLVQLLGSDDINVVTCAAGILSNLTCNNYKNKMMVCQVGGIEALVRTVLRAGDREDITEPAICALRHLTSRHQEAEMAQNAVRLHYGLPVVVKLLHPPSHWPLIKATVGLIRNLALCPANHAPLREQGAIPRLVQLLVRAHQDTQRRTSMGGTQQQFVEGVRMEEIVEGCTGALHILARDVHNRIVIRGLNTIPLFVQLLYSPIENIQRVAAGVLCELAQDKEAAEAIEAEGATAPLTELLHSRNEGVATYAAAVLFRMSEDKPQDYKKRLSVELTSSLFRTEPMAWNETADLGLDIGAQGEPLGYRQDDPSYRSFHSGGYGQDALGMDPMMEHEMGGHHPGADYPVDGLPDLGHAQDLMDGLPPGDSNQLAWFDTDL
Assay: In vitro dephosphorylation assay
Format: biochemical
Conditions: 200 ng GST fusion protein, 25° C.; within the first five minutes; anti-phosphotyrosine Western blot
Procedure: After 24 h of serum starvation, the cells were stimulated with pervanadate before lysis. β-catenin was subsequently immunoprecipitated with an anti-β-catenin antibody, and precipitates were incubated for the indicated time intervals with GST-PTP LAR cytoplasmic fusion protein (left), GST-PTP LAR PTP D1 C1522S-mutant (middle) or GST-PTP LAR PTP D2 C1813S-mutant (right). Reactions were terminated after the indicated periods of time, and proteins were separated by SDS-PAGE. Tyrosine phosphorylation levels of […] were analyzed by Western blotting with an anti-phosphotyrosine antibody (top). […] Arrows indicate the proteins of interest.
In Vitro Dephosphorylation Assay—β-catenin was transiently overexpressed in human 293 embryonic kidney cells. Cells were serum-starved, treated with pervanadate ([…]/0.1 mM Na-orthovanadate) for 10 minutes and lysed. Immunoprecipitations were performed as described above except that HNTG without pyrophosphate, ammonium-molybdate, and Na-orthovanadate was used. PTP activity towards tyrosine phosphorylated β-catenin was assayed in 200 μL reactions at 25° C. containing 25 mM HEPES, pH 7.5, 5 mM EDTA, 10 mM DTT, and 1 mg/mL BSA with 200 ng of GST-hPTP LAR cytoplasmic, GST-hPTP LAR D1 C1522S, or GST-hPTP LAR D2 C1813S added. Reactions were stopped by washing with HNTG and subsequently separated by SDS-PAGE. The tyrosine phosphorylation status was analyzed by Western blotting using anti-phosphotyrosine antibody.
The association of β-catenin and plakoglobin with PTP LAR prompted the investigation of whether these proteins could represent actual substrates for PTP LAR. […] After different time intervals, the reactions were terminated and analyzed with an anti-phosphotyrosine specific antibody.

B1: GST-PTP LAR cytoplasmic: GST fusion protein comprising the entire cytoplasmic domain (amino acids 1259-1881) of human PTP LAR (protein)
chain: PEMLWVTGPVLAVILIILIVIAILLFKRKRTHSPSSKDEQSIGLKDSLLAHSSDPVEMRRLNYQTPGMRDHPPIPITDLADNIERLKANDGLKFSQEYESIDPGQQFTWENSNLEVNKPKNRYANVIAYDHSRVILTSIDGVPGSDYINANYIDGYRKQNAYIATQGPLPETMGDFWRMVWEQRTATVVMMTRLEEKSRVKCDQYWPARGTETCGLIQVTLLDTVELATYTVRTFALHKSGSSEKRELRQFQFMAWPDHGVPEYPTPILAFLRRVKACNPLDAGPMVVHCSAGVGRTGCFIVIDAMLERMKHEKTVDIYGHVTCMRSQRNYMVQTEDQYVFIHEALLEAATCGHTEVPARNLYAHIQKLGQVPPGESVTAMELEFKLLASSKAHTSRFISANLPCNKFKNRLVNIMPYELTRVCLQPIRGVEGSDYINASFLDGYRQQKAYIATQGPLAESTEDFWRMLWEHNSTIIVMLTKLREMGREKCHQYWPAERSARYQYFVVDPMAEYNMPQYILREFKVTDARDGQSRTIRQFQFTDWPEQGVPKTGEGFIDFIGQVHKTKEQFGQDGPITVHCSAGVGRTGVFITLSIVLERMRYEGVVDMFQTVKTLRTQRPAM
tyrosine phosphorylation signal of β-catenin: significant reduction in the tyrosine phosphorylation signal
